This is an account of results in publication PMC3569449.

Experiment [1] concerns the target Human V-ATPase subunit C1 (human) (UniProt P21283). The experiment is described as follows: SPR; C1 immobilised on CM5; response at 10 µM analyte (E1G1, a1NT, or both together). On the technique in general: Surface plasmon resonance follows binding to a sensor surface in real time, without labels.
For experiment [2] the target is unchanged. Briefly: SPR; Biacore T100; C1, H or a1NT amine-coupled to CM5; 20 mM HEPES-NaOH, 300 mM NaCl, 1 mM DTT, 0.05% P20, pH 7.5, 10°C; KD from steady-state Req against analyte concentration, 1:1 Langmuir isotherm.
Experiment [3] concerns the target Human V-ATPase subunit H (non-tagged) (human) (UniProt Q9UI12). The experiment is described as above.
The target of experiment [4] is N-terminal cytoplasmic domain of the a1 isoform of subunit a of human V-ATPase (residues 1-353) (human) (UniProt Q93050). The experiment is described as above.
Experiment [5] concerns the target V-ATPase a NT (Saccharomyces cerevisiae) (UniProt P32563). Briefly: ITC. The note with it: cited from earlier work.

Chain of Human V-ATPase subunit C1 (human) (P21283 whole entry): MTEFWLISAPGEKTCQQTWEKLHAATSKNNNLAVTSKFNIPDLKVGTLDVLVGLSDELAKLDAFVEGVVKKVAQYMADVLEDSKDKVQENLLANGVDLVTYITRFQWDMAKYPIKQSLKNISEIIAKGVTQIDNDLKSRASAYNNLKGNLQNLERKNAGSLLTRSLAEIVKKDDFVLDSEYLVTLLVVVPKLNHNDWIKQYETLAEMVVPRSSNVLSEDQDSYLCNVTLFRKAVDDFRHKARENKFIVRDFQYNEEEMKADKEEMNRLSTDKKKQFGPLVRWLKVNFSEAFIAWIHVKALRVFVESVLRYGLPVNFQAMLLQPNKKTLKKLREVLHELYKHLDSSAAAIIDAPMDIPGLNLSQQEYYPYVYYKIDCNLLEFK
Chain of Human V-ATPase subunit H (non-tagged) (human) (Q9UI12 whole entry, the tested form may be a part, canonical isoform): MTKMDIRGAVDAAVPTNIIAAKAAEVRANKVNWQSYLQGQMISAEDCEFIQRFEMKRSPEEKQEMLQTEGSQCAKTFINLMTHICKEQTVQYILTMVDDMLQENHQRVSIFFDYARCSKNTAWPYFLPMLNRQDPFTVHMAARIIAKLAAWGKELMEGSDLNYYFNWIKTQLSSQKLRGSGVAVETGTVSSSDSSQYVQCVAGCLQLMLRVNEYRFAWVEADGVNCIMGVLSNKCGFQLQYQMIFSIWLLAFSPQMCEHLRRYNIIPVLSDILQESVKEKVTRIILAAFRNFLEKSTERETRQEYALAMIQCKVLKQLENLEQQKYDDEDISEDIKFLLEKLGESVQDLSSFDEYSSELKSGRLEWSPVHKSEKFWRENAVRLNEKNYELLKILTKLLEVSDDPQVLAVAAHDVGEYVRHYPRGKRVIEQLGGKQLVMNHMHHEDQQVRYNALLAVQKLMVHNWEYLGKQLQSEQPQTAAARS
Chain of V-ATPase a NT (Saccharomyces cerevisiae) (P32563 104-372): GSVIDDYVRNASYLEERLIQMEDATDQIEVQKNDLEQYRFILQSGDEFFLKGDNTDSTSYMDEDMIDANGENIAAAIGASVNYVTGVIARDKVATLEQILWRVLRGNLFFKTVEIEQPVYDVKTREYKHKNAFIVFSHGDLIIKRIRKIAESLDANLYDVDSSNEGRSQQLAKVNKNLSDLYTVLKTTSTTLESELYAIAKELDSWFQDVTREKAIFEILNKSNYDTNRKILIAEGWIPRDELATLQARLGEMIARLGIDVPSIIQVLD
Chain of N-terminal cytoplasmic domain of the a1 isoform of subunit a of human V-ATPase (residues 1-353) (human) (Q93050 1-353): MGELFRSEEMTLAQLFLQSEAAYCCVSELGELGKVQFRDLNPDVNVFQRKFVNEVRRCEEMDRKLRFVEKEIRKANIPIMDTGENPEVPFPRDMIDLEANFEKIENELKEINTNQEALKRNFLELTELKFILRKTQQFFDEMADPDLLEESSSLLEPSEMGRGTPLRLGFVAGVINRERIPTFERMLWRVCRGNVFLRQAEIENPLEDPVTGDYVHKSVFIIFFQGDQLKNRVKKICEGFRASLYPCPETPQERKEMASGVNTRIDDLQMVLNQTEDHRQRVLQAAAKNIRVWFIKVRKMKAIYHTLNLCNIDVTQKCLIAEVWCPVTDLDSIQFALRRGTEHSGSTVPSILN
Chain of V-ATPase EG (P22203 2-233): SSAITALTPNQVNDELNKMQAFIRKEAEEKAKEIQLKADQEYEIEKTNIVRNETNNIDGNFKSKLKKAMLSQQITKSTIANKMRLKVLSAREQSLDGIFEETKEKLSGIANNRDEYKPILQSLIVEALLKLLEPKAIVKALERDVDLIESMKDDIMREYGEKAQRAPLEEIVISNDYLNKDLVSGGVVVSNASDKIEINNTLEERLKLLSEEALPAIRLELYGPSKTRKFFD
Chain of V-ATPase EG (P48836 2-114, further chain): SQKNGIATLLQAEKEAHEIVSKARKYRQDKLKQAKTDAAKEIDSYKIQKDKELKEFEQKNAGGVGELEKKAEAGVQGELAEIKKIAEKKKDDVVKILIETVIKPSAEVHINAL
Chain of V-ATPase C foot (P31412 2-157): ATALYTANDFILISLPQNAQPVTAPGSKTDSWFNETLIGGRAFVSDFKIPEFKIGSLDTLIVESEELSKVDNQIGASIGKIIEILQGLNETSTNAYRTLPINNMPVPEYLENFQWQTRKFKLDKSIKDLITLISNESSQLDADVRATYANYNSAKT
Chain of V-ATPase C foot (P31412 278-392): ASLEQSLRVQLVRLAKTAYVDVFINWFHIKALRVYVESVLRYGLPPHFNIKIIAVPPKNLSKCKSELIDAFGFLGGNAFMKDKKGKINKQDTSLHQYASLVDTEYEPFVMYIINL

Usually Kd stands for a measure of binding affinity in units of concentration. Regarding “N-terminal cytoplasmic domain of the a1 isoform of subunit a of human V-ATPase (residues 1-353) (from UniProt Q93050 1-353) (domain or fragment)”, in experiment [1], the response at 10 µM analyte amounted to 45 RU. The figures for the Kd in experiment [2] and in experiment [3] were 3 µM and 0.36 µM, respectively.

Regarding “E1G1 heterodimer of human V-ATPase (subunits E1 and G1, co-expressed and co-purified) (from UniProt P36543 1-226; O75348 1-118) (complex)”, the Kd in experiment [4] amounted to 0.21 µM.

As to V-ATPase C foot (from UniProt P31412), the equilibrium dissociation constant (Kd) in experiment [5] was 22 µM.

For V-ATPase EG (from UniProt P22203), in experiment [5], the Kd was 33 µM.

Turning to “Human V-ATPase subunit C1 (from UniProt P21283 1-382) (natural protein)”, the Kd in experiment [3] is 1.4 µM.
